For data set [1], the target named is T1, IGF2BP1 KH3-4dR (KH3GEEG-KH4GEEG) (UniProt Q9NZI8 1-577, K423E;K424E;K505E;G506E). The data set is described as follows: EMSA; EMSA: 25 mM HEPES pH 7.3, 150 mM NaCl, 5% glycerol, 2 mM EDTA, 10 ug/mL heparin, 0.5 mM TCEP, on ice, gel 4 C; FA: 25 mM HEPES 7.3, 150 mM NaCl, 0.025% Tween 20, 10 ug/mL heparin, 2 mM EDTA, 0.5 mM TCEP, 10 nM RNA, 20 C. The conditions noted are these: protein: recombinant; tags: GST removed by 3C.

For data set [2], the target named is T2, IGF2BP1 wild-type (UniProt Q9NZI8 1-577). The data set is described as above. The conditions noted are these: protein: recombinant; tags: GST removed by 3C.
Data set [3] deals with T3, IGF2BP1 RQ (UniProt Q9NZI8 1-577, R167Q;R168Q;R174Q;R178Q). The data set is described as above. The conditions noted are these: protein: recombinant; tags: GST removed by 3C.
Data set [4] has as its target T4, IGF2BP1 S181E (UniProt Q9NZI8 1-577, S181E). The description is as above. The settings on record: protein: recombinant; tags: GST removed by 3C.
In data set [5] the target is T5, IGF2BP1 Y396E (UniProt Q9NZI8 1-577, Y396E). The data set is described as above. The conditions noted are these: protein: recombinant; tags: GST removed by 3C.
In data set [6] the target is IGF2BP1 KH3-4 (UniProt Q9NZI8 405-553). In words: fluorescence anisotropy; EMSA: 25 mM HEPES pH 7.3, 150 mM NaCl, 5% glycerol, 2 mM EDTA, 10 ug/mL heparin, 0.5 mM TCEP, on ice, gel 4 C; FA: 25 mM HEPES 7.3, 150 mM NaCl, 0.025% Tween 20, 10 ug/mL heparin, 2 mM EDTA, 0.5 mM TCEP, 10 nM RNA, 20 C. The conditions noted are these: protein: recombinant; tags: His removed by 3C; label: 5'-fluorescein.

Data set [7] has as its target T1, IGF2BP1 KH3-4dR (KH3GEEG-KH4GEEG). The data set is described as above. The conditions noted are these: protein: recombinant; tags: GST removed by 3C; label: 5'-fluorescein.
In data set [8] the target is T2, IGF2BP1 wild-type. Described as above. The conditions noted are these: protein: recombinant; tags: GST removed by 3C; label: 5'-fluorescein.
The target in data set [9] is T3, IGF2BP1 RQ. The description is as above. The settings on record: protein: recombinant; tags: GST removed by 3C; label: 5'-fluorescein.
Data set [10] addresses T4, IGF2BP1 S181E. Described as above. The settings on record: protein: recombinant; tags: GST removed by 3C; label: 5'-fluorescein.
In data set [11] the target is T5, IGF2BP1 Y396E. Described as above. The settings on record: protein: recombinant; tags: GST removed by 3C; label: 5'-fluorescein.
The target in data set [12] is IGF2BP1 KH1-4 (UniProt Q9NZI8 195-553). The description is as above. The conditions noted are these: protein: recombinant; tags: His removed by 3C; label: 5'-fluorescein.
Sequence of IGF2BP1 KH1-4 (Q9NZI8 195-553): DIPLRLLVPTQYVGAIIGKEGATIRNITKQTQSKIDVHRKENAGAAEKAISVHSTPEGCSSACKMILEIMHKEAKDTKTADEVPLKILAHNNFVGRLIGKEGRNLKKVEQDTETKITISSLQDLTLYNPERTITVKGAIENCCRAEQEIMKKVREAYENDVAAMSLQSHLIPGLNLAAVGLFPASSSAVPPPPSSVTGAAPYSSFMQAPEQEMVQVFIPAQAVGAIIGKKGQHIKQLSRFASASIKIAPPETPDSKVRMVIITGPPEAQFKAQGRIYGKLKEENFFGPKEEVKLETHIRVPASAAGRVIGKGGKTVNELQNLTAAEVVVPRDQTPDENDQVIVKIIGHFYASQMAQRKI

T5 sequence (Q9NZI8 whole entry Y396E): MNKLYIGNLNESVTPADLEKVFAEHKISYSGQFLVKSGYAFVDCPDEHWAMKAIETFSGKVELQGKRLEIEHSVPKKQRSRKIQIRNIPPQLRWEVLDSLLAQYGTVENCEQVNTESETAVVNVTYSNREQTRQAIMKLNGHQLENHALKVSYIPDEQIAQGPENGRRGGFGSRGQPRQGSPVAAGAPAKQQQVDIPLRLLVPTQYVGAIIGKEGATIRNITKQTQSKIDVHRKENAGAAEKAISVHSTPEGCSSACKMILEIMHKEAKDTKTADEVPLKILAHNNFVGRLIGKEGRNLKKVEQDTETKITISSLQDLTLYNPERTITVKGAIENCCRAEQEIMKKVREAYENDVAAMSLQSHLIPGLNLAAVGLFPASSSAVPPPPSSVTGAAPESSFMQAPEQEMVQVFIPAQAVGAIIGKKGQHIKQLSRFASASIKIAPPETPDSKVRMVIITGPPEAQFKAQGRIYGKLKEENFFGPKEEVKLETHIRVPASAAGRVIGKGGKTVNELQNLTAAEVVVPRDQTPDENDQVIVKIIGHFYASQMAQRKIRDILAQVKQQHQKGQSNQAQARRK
T2 sequence (Q9NZI8 whole entry): as the sequence (Q9NZI8 whole entry Y396E) above, with E396Y counted along it
T4 sequence (Q9NZI8 whole entry S181E): as the sequence (Q9NZI8 whole entry Y396E) above, with S181E, E396Y counted along it
Sequence of IGF2BP1 KH3-4 (Q9NZI8 405-553): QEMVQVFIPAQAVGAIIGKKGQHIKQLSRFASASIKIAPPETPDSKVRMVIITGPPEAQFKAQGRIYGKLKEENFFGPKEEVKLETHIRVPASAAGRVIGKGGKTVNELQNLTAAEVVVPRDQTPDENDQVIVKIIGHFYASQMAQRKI
T3 sequence (Q9NZI8 whole entry R167Q/R168Q/R174Q/R178Q): as the sequence (Q9NZI8 whole entry Y396E) above, with R167Q, R168Q, R174Q, R178Q, E396Y counted along it
T1 sequence (Q9NZI8 whole entry K423E/K424E/K505E/G506E): as the sequence (Q9NZI8 whole entry Y396E) above, with E396Y, K423E, K424E, K505E, G506E counted along it

B1: XBP1 201 nt (ssRNA)
RNA: UCUCAAAUCUGCUUUCAUCCAGCCACUGCCCAAAGCCAUCUUCCUGCCUACUGGAUGCUUACAGUGACUGUGGAUACGGGGGUUCCCUUUCCCCAUUCAGUGACAUGUCCUCUCUGCUUGGUGUAAACCAUUCUUGGGAGGACACUUUUGCCAAUGAACUCUUUCCCCAGCUGAUUAGUGUCUAAGGAAUGAUCCAAUACU
Consider B1, for which the “apparent K (half saturation)” value in [1] stood at 64.7 nM; in data set [2], 41 nM; in data set [4] it was 17.1 nM; in data set [5], 22.9 nM. Besides, the binding result in [3] is reported as “binds”.

Turning to GUGACAUGUCCUCUCUGCUUGGUGUAAACCAUUCUU (ssRNA) [XBP1 36 nt], the “apparent K (half saturation)” value in data set [6] is around 1500 nM; in [7], 186 nM; in [8], 312 nM; in data set [10], 310 nM; in data set [11] it was 423 nM; in data set [12], 204 nM. Further, the binding result in data set [9] is given as “binds”.

B2: MYC 191 nt (ssRNA)
RNA: UGCGUGACCAGAUCCCGGAGUUGGAAAACAAUGAAAAGGCCCCCAAGGUAGUUAUCCUUAAAAAAGCCACAGCAUACAUCCUGUCCGUCCAAGCAGAGGAGCAAAAGCUCAUUUCUGAAGAGGACUUGUUGCGGAAACGACGAGAACAGUUGAAACACAAACUUGAACAGCUACGGAACUCUUGUGCGUAA
For B2, the “apparent K (half saturation)” value was 14.4 nM in data set [2], 17.8 nM in [4] and 16.7 nM in [5].

B3: EIF2A 200 nt (ssRNA)
RNA: AGAAAAUUCAGAAAGAAACAGCCCUUCUCCAGGAGCUGGAAGAUUUGGAAUUGGGUAUUUAAAGAUUCACGGAAAGCAAGUUGAUGACCAGAAAUCAGUGCAAACACAUCUUCUGUUAAACCCAUUGGUAUACACAGAAUAUUCCUGUGCCCACACUUAAUGUCAAUCUAUAAUUUUAACCAUUUAUCCAAGAUUCUACU
On to B3, for which the “apparent K (half saturation)” value in [2] worked out at 48.2 nM; in [4], 35.4 nM; in [5], 40.2 nM.

For ACCGGACUGUUACCAACACCCACACCCC (ssRNA) [ACTB 28 nt], the “apparent K (half saturation)” value in data set [6] came out at 1570 nM; in data set [8], 68.5 nM; in data set [12] it was 75.2 nM.

Source of the values: publication PMC11490574, “IGF2BP1 phosphorylation in the disordered linkers regulates ribonucleoprotein condensate formation and RNA metabolism”.
